Measured values taken from paper PMC6468047, “Cannabinoid CB1 and CB2 Receptor-Mediated Arrestin Translocation: Species, Subtype, and Agonist-Dependence” (Frontiers in Pharmacology, 2019).
Like-named read-outs stand apart in the source and are kept apart here.

What was measured:
[1] = target: human cannabinoid receptor 2 (3HA-hCB2) (human) (UniProt P34972)
[2] = target: human cannabinoid receptor 1 (pplss-3HA-hCB1) (human) (UniProt P21554)
[3] = target: human D2 dopamine receptor (3HA-hD2R) (human) (UniProt P14416)
[4] = target: human vasopressin receptor 2 (3HA-hV2R) (human) (UniProt P30518)
[5] = target: human cannabinoid receptor 2 (3HA-hCB2) (human) (UniProt P34972); remark: listed apart in the source
[6] = target: human cannabinoid receptor 1 (pplss-3HA-hCB1) (human) (UniProt P21554); remark: listed apart in the source
[7] = target: human vasopressin receptor 2 (3HA-hV2R) (human) (UniProt P30518); remark: listed apart in the source
[8] = target: human D2 dopamine receptor (3HA-hD2R) (human) (UniProt P14416); remark: listed apart in the source
[9] = target: human vasopressin receptor 2 (3HA-hV2R) (human) (UniProt P30518); remark: listed apart in the source
[10] = target: human cannabinoid receptor 2 (3HA-hCB2) (human) (UniProt P34972); remark: listed apart in the source
[11] = target: human cannabinoid receptor 1 (pplss-3HA-hCB1) (human) (UniProt P21554); remark: listed apart in the source

Chain of human cannabinoid receptor 2 (3HA-hCB2) (human) (P34972 whole entry): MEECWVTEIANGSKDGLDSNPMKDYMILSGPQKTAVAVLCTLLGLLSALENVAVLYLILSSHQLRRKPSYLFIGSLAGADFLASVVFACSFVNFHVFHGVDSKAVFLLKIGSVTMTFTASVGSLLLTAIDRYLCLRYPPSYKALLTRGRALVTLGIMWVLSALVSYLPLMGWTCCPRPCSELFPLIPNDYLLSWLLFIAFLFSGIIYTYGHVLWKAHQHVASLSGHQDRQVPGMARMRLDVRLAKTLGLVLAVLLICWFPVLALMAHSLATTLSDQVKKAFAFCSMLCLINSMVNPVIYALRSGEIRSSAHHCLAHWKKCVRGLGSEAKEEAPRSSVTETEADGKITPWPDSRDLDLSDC
Chain of human β-arrestin-2 (Rluc8-hβ-arrestin-2-Sp1) (P32121 whole entry): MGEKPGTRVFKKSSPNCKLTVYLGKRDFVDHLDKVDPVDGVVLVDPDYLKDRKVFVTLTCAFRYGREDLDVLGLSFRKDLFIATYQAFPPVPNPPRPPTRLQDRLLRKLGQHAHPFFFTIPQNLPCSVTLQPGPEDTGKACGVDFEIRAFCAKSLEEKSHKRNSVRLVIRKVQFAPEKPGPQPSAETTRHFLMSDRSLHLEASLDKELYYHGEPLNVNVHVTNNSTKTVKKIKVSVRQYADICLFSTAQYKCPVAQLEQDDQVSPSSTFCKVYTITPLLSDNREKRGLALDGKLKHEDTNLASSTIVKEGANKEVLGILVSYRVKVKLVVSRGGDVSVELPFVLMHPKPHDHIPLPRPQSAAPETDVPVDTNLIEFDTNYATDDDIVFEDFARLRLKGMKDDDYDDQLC
Chain of bovine β-arrestin-2 (Rluc8-bβ-arrestin-2-Sp1) (P32120 whole entry): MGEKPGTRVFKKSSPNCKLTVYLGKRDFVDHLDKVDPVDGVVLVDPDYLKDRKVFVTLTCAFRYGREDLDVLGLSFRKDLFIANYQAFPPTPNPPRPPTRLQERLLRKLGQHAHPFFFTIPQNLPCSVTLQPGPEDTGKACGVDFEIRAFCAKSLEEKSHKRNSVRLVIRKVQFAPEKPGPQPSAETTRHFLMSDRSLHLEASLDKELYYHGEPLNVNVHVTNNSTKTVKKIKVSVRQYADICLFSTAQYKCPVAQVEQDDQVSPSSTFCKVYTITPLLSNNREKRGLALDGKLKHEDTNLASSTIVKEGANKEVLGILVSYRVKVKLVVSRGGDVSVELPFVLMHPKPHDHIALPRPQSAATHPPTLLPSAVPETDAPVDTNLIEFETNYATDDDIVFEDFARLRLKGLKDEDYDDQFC
Chain of human β-arrestin-1 (Rluc8-hβ-arrestin-1-Sp1) (P49407 whole entry): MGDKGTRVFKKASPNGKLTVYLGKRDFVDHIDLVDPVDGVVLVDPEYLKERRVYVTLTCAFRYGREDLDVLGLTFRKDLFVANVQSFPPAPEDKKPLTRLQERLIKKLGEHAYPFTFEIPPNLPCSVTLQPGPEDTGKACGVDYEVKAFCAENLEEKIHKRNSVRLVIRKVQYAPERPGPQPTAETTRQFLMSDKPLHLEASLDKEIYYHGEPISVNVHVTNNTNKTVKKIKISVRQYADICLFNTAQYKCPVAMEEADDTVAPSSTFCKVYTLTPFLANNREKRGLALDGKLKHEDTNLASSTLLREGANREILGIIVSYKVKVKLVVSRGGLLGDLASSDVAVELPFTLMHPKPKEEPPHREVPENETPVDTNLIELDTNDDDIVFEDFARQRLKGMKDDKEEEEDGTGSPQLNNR
Chain of human D2 dopamine receptor (3HA-hD2R) (human) (P14416 whole entry): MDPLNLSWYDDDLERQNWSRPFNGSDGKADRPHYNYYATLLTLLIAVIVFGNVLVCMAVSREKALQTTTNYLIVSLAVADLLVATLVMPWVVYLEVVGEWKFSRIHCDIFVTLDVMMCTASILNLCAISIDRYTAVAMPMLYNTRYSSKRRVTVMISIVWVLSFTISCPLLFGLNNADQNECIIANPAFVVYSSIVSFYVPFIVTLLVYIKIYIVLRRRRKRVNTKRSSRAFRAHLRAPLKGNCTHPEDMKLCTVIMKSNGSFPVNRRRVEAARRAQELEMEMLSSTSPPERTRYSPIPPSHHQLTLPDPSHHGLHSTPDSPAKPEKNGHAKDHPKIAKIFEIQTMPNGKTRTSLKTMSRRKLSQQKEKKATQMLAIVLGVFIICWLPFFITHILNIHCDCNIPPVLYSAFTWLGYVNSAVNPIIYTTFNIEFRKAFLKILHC
Chain of human cannabinoid receptor 1 (pplss-3HA-hCB1) (human) (P21554 whole entry): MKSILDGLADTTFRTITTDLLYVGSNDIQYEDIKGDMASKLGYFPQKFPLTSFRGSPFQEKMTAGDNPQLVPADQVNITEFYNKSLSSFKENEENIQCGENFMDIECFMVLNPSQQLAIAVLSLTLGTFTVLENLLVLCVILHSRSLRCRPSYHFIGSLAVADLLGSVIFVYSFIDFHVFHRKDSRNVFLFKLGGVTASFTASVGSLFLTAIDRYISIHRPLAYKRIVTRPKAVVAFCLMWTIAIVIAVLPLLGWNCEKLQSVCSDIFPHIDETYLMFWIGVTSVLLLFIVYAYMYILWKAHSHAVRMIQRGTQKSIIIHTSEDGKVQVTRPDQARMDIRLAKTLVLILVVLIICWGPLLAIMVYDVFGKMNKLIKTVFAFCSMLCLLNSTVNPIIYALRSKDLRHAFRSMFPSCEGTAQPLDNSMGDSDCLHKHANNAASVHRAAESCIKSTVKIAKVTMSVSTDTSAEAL

## human β-arrestin-1 (Rluc8-hβ-arrestin-1-Sp1) (from UniProt P49407 1-418) (natural protein)
[1]
  Response, arrestin translocation to the plasma membrane (BRET, AUC of 25 min); 1 μM CP55,940 (significantly different from vehicle): 20.5 ΔBRET.sec
  Response, arrestin translocation to the plasma membrane (BRET, AUC of 25 min); 1 μM CP55,940; GRK2 co-expressed (significantly different from vehicle): 22.7 ΔBRET.sec
  Response, arrestin translocation to the plasma membrane (BRET, AUC of 25 min); 10 μM JWH-015 (significantly different from vehicle): 31.2 ΔBRET.sec
  Response, arrestin translocation to the plasma membrane (BRET, AUC of 25 min); 10 μM JWH-133 (not significantly different from vehicle): 4.9 ΔBRET.sec
  Response, arrestin translocation to the plasma membrane (BRET, AUC of 25 min); 10 μM THC (significantly different from vehicle): 14.4 ΔBRET.sec
  Response, arrestin translocation to the plasma membrane (BRET, AUC of 25 min); 10 μM WIN55,212-2 (not significantly different from vehicle): 3.2 ΔBRET.sec
  Response, arrestin translocation to the plasma membrane (BRET, AUC of 25 min); 31.6 μM 2-AG (significantly different from vehicle): 14.7 ΔBRET.sec
  Response, arrestin translocation to the plasma membrane (BRET, AUC of 25 min); 31.6 μM 2-AG; GRK2 co-expressed (significantly different from vehicle): 17.2 ΔBRET.sec
[2]
  Response, arrestin translocation to the plasma membrane (BRET, AUC of 25 min); 1 μM CP55,940 (not significantly different from vehicle): 17.6 ΔBRET.sec
  Response, arrestin translocation to the plasma membrane (BRET, AUC of 25 min); 1 μM CP55,940; GRK2 co-expressed (significantly different from vehicle): 28.1 ΔBRET.sec
  Response, arrestin translocation to the plasma membrane (BRET, AUC of 25 min); 10 μM AEA (not significantly different from vehicle): 10 ΔBRET.sec
  Response, arrestin translocation to the plasma membrane (BRET, AUC of 25 min); 10 μM BAY (not significantly different from vehicle): 1.4 ΔBRET.sec
  Response, arrestin translocation to the plasma membrane (BRET, AUC of 25 min); 10 μM THC (not significantly different from vehicle): 16.2 ΔBRET.sec
  Response, arrestin translocation to the plasma membrane (BRET, AUC of 25 min); 10 μM WIN55,212-2 (significantly different from vehicle): 36.2 ΔBRET.sec
  Response, arrestin translocation to the plasma membrane (BRET, AUC of 25 min); 31.6 μM 2-AG (significantly different from vehicle): 51.8 ΔBRET.sec
  Response, arrestin translocation to the plasma membrane (BRET, AUC of 25 min); 31.6 μM 2-AG; GRK2 co-expressed (significantly different from vehicle): 53 ΔBRET.sec
[3]
  Response, arrestin translocation to the plasma membrane (BRET, AUC of 25 min); 10 μM dopamine: 17.9 ΔBRET.sec
  Response, arrestin translocation to the plasma membrane (BRET, AUC of 25 min); 10 μM dopamine; GRK2 co-expressed: 86.1 ΔBRET.sec
[4]
  Emax, arrestin translocation to the plasma membrane (BRET, AUC of 25 min); agonist AVP: 246 ΔBRET.sec

## human β-arrestin-2 (Rluc8-hβ-arrestin-2-Sp1) (from UniProt P32121 1-409) (natural protein)
[5]
  Emax, arrestin translocation to the plasma membrane (BRET, AUC of 25 min); agonist 2-AG: 31.3 ΔBRET.sec
  Emax, arrestin translocation to the plasma membrane (BRET, AUC of 25 min); agonist 2-AG; GRK2 co-expressed: 68.7 ΔBRET.sec
  Emax, arrestin translocation to the plasma membrane (BRET, AUC of 25 min); agonist CP55,940: 37.4 ΔBRET.sec
  Emax, arrestin translocation to the plasma membrane (BRET, AUC of 25 min); agonist CP55,940; GRK2 co-expressed: 70.4 ΔBRET.sec
  Emax, arrestin translocation to the plasma membrane (BRET, AUC of 25 min); agonist JWH-015: 34 ΔBRET.sec
  Emax, arrestin translocation to the plasma membrane (BRET, AUC of 25 min); agonist JWH-133: 37.8 ΔBRET.sec
  Emax, arrestin translocation to the plasma membrane (BRET, AUC of 25 min); agonist WIN55,212-2: 24.4 ΔBRET.sec
  efficacy at 10 μM THC (NA, not active; no curve could be fitted), arrestin translocation to the plasma membrane (BRET, AUC of 25 min): -3.8 ΔBRET.sec
[6]
  Emax, arrestin translocation to the plasma membrane (BRET, AUC of 25 min); agonist 2-AG: 236 ΔBRET.sec
  Emax, arrestin translocation to the plasma membrane (BRET, AUC of 25 min); agonist 2-AG; GRK2 co-expressed: 150 ΔBRET.sec
  Emax, arrestin translocation to the plasma membrane (BRET, AUC of 25 min); agonist AEA: 47.9 ΔBRET.sec
  Emax, arrestin translocation to the plasma membrane (BRET, AUC of 25 min); agonist CP55,940: 83.7 ΔBRET.sec
  Emax, arrestin translocation to the plasma membrane (BRET, AUC of 25 min); agonist CP55,940; GRK2 co-expressed: 120 ΔBRET.sec
  Emax, arrestin translocation to the plasma membrane (BRET, AUC of 25 min); agonist WIN55,212-2: 164 ΔBRET.sec
  efficacy at 10 μM BAY (NA, not active; no curve could be fitted), arrestin translocation to the plasma membrane (BRET, AUC of 25 min): 15.3 ΔBRET.sec
  efficacy at 10 μM THC (NA, not active; no curve could be fitted), arrestin translocation to the plasma membrane (BRET, AUC of 25 min): 5.9 ΔBRET.sec
[7]
  Emax, arrestin translocation to the plasma membrane (BRET, AUC of 25 min); agonist AVP: 306 ΔBRET.sec

## bovine β-arrestin-2 (Rluc8-bβ-arrestin-2-Sp1) (from UniProt P32120 1-420) (natural protein)
[8]
  Emax, arrestin translocation to the plasma membrane (BRET, AUC of 25 min); agonist dopamine: 40.6 ΔBRET.sec
  Emax, arrestin translocation to the plasma membrane (BRET, AUC of 25 min); agonist dopamine; GRK2 co-expressed: 129 ΔBRET.sec
[9]
  Emax, arrestin translocation to the plasma membrane (BRET, AUC of 25 min); agonist AVP: 194 ΔBRET.sec
[10]
  Emax, arrestin translocation to the plasma membrane (BRET, AUC of 25 min); agonist 2-AG: 45 ΔBRET.sec
  Emax, arrestin translocation to the plasma membrane (BRET, AUC of 25 min); agonist 2-AG; GRK2 co-expressed: 75.7 ΔBRET.sec
  Emax, arrestin translocation to the plasma membrane (BRET, AUC of 25 min); agonist CP55,940: 45.4 ΔBRET.sec
  Emax, arrestin translocation to the plasma membrane (BRET, AUC of 25 min); agonist CP55,940; GRK2 co-expressed: 70.9 ΔBRET.sec
  Emax, arrestin translocation to the plasma membrane (BRET, AUC of 25 min); agonist JWH-015: 26.7 ΔBRET.sec
  Emax, arrestin translocation to the plasma membrane (BRET, AUC of 25 min); agonist JWH-133: 49.7 ΔBRET.sec
  Emax, arrestin translocation to the plasma membrane (BRET, AUC of 25 min); agonist WIN55,212-2: 25.6 ΔBRET.sec
  efficacy at 10 μM THC (NA, not active; no curve could be fitted), arrestin translocation to the plasma membrane (BRET, AUC of 25 min): 2 ΔBRET.sec
[11]
  Emax, arrestin translocation to the plasma membrane (BRET, AUC of 25 min); agonist 2-AG: 116 ΔBRET.sec
  Emax, arrestin translocation to the plasma membrane (BRET, AUC of 25 min); agonist 2-AG; GRK2 co-expressed: 91.7 ΔBRET.sec
  Emax, arrestin translocation to the plasma membrane (BRET, AUC of 25 min); agonist AEA: 32.1 ΔBRET.sec
  Emax, arrestin translocation to the plasma membrane (BRET, AUC of 25 min); agonist CP55,940: 35.2 ΔBRET.sec
  Emax, arrestin translocation to the plasma membrane (BRET, AUC of 25 min); agonist CP55,940; GRK2 co-expressed: 58.9 ΔBRET.sec
  Emax, arrestin translocation to the plasma membrane (BRET, AUC of 25 min); agonist WIN55,212-2: 72 ΔBRET.sec
  efficacy at 10 μM BAY (NA, not active; no curve could be fitted), arrestin translocation to the plasma membrane (BRET, AUC of 25 min): 2.4 ΔBRET.sec
  efficacy at 10 μM THC (NA, not active; no curve could be fitted), arrestin translocation to the plasma membrane (BRET, AUC of 25 min): 0.54 ΔBRET.sec
